# Laboratory results from PMC5871880, “Structural insights into the RNA methyltransferase domain of METTL16” (Scientific Reports, 2018).
# Biological target: the molecule itself
# Assay: SEC; analytical SEC on Superdex 200 10/300 GL; samples ~21 µM in 100 µl; 25 mM HEPES pH 7.5, 100 mM KCl, 50 mM NaCl, 1 mM TCEP, 1 mM MgCl2; molecular weights from a standard curve
protein,measurement,value
"human methyltransferase-like protein 16 (METTL16), residues 1-562 (enzyme, Ser-Asn-Ala linker encoded in the pMCSG68 vector, between the TEV protease cleavage site and residue 1; METTL16, human, UniProt Q86W50, residues 1-562; also called full-length METTL16; source: E. coli BL21 Gold, purified (HisTrap HP, TEV cleavage, SEC); not shown: His6, N-terminal, cleaved) SNAMALSKSMHARNRYKDKPPDFAYLASKYPDFKQHVQINLNGRVSLNFKDPEAVRALTCTLLREDFGLSIDIPLERLIPTVPLRLNYIHWVEDLIGHQDSDKSTLRRGIDIGTGASCIYPLLGATLNGWYFLATEVDDMCFNYAKKNVEQNNLSDLIKVVKVPQKTLLMDALKEESEIIYDFCMCNPPFFANQLEAKGVNSRNPRRPPPSSVNTGGITEIMAEGGELEFVKRIIHDSLQLKKRLRWYSCMLGKKCSLAPLKEELRIQGVPKVTYTEFCQGRTMRWALAWSFYDDVTVPSPPSKRRKLEKPRKPITFVVLASVMKELSLKASPLRSETAEGIVVVTTWIEKILTDLKVQHKRVPCGKEEVSLFLTAIENSWIHLRRKKRERVRQLREVPRAPEDVIQALEEKKPTPKESGNSQELARGPQERTPCGPALREGEAAAVEGPCPSQESLSQEENPEPTEDERSEEKGGVEVLESCQGSSNGAQDQEASEQFGSPVAERGKRLPGVAGQYLFKCLINVKKEVDDALVEMHWVEGQNRDLMNQLCTYIRNQIFRLVAVN",stoichiometry N,2
